According to the DeepSol protein solubility set:

Assay: soluble on expression in E. coli; label from the status in PepcDB or PDB records

| Sequence | soluble on expression in E. coli |
| --- | --- |
| MLWHAMPPELNTARLMAGAGPAPMLAAAAGWQTLSAALDAQAVELTARLNSLGEAWTGGGSDKALAAATPMVVWLQTASTQAKTRAMQATAQAAAYTQAMATTPSLPEIAANHITQAVLTATNFFGINTIPIALTEMDYFIRMWNQAALAMEVYQAETAVNTLFEKLEPMASILDPGASQSTTNPIFGMPSPGSSTPVGQLPPAATQTLGQLGEMSGPMQQLTQPLQQVTSLFSQVGGTGGGNPADEEAAQMGLLGTSPLSNHPLAGGSGPSAGAGLLRAESLPGAGGSLTRTPLMSQLIEKPVAPSVMPAAAAGSSATGGAAPVGAGAMGQGAQSGGSTRPGLVAPAPLAQEREEDDEDDWDEEDDW | soluble |
| MTTNLTNSNCVEEYKENGKTKIRIKPFNALIELYHHQTPTGSIKENLDKLENYVKDVVKAKGLAIPTSGAFSNTRGTWFEVMIAIQSWNYRVKRELNDYLIIKMPNVKTFDFRKIFDNETREKLHQLEKSLLTHKQQVRLITSNPDLLIIRQKDLIKSEYNLPINKLTHENIDVALTLFKDIEGKCKWDSLVAGVGLKTSLRPDRRLQLVHEGNILKSLFAHLKMRYWNPKAEFKYYGASSEPVSKADDDALQTAATHTIVNVNSTPERAVDDIFSLTSFEDIDKMLDQIIKK | soluble |
| MNGHISNHPSSFGMYPSQMNGYGSSPTFSQTDREHGSKTSAKALYEQRKNYARDSVSSVSDISQYRVEHLTTFVLDRKDAMITVDDGIRKLKLLDAKGKVWTQDMILQVDDRAVSLIDLESKNELENFPLNTIQHCQAVMHSCSYDSVLALVCKEPTQNKPDLHLFQCDEVKANLISEDIESAISDSKGGKQKRRPDALRMISNADPSIPPPPRAPAPAPPGTVTQVDVRSRVAAWSAWAADQGDFEKPRQYHEQEETPEMMAARIDRDVQILNHILDDIEFFITKLQKAAEAFSELSKRKKNKKGKRKGPGEGVLTLRAKPPPPDEFLDCFQKFKHGFNLLAKLKSHIQNPSAADLVHFLFTPLNMVVQATGGPELASSVLSPLLNKDTIDFLNYTVNGDERQLWMSLGGTWMKARAEWPKEQFIPPYVPRFRNGWEPPMLNFMGATMEQDLYQLAESVANVAEHQRKQEIKRLSTEHSSVSEYHPADGYAFSSNIYTRGSHLDQGEAAVAFKPTSNRHIDRNYEPLKTQPKKYAKSKYDFVARNNSELSVLKDDILEILDDRKQWWKVRNASGDSGFVPNNILDIVRPPESGLGRADPPYTHTIQKQRMEYGPRPADTPPAPSPPPTPAPVPVPLPPSTPAPVPVSKVPANITRQNSSSSDSGGSIVRDSQRHKQLPVDRRKSQMEEVQDELIHRLTIGRSAAQKKFHVPRQNVPVINITYDSTPEDVKTWLQSKGFNPVTVNSLGVLNGAQLFSLNKDELRTVCPEGARVYSQITVQKAALEDSSGSSELQEIMRRRQEKISAAASDSGVESFDEGSSH | soluble |
| MGHHHHHHSHMDDPLLVELQAEDYWYEAYNMRTGARGVFPAYYAIEVTKEPEHMAALAKNSDWVDQFRVKFLGSVQVPYHKGNDVLCAAMQKIATTRRLTVHFNPPSSCVLEISVRGVKIGVKADDSQEAKGNKCSHFFQLKNISFCGYHPKNNKYFGFITKHPADHRFACHVFVSEDSTKALAESVGRAFQQFYKQFVEYTCPT | soluble |
| MGSDKIHHHHHHMIFIPPFEQGKLLRRYKRFLADVLLDDGTEITIHCPNTGSMRNCLFPGERVWFSTSDNPKRKYAHTWEQAASDEGHIIGINTGRANALAAEAIEAGVISELTGYDRLRREVKYGSENSRIDLLLESEDKPACYIEVKSCTLLEQGQGYFPDAVTTRGQKHLRELMEMVKQGHRAVLLFVVQHTGITTVAAARHIDPEYAELLTQAHQAGVEILAYSCELSPSAAKLIKSCPVKL | not soluble |
| MIKRILKIWFIIGMYELSKYLTNELIIYLQSEDDIDTAPKDFAILDDQIDLNRSFRRQIENDIAKAFEDAFNSSEKEDNLEHHHHHH | not soluble |
| MGFAKPPWGGKLKGVVRILGGKARGVALKVPASARPSPVRLRKALFDYLRLRYPRRGRFLDLFAGSGAVGLEAASEGWEAVLVEKDPEAVRLLKENVRRTGLGARVVALPVEVFLPEAKAQGERFTVAFMAPPYAMDLAALFGELLASGLVEAGGLYVLQHPKDLYLPLGERRVYGENALTLVEV | soluble |
| MESLIGLVNRIQRACTVLGDYGGGTGSNAFNSLWEALPTVAVVGGQSSGKSSVLESIVGRDFLPRGSGIVTRRPLVLQLHKTDDGTEEYAEFLHLPKKQFTDFALVRREIQDETDRITGKNKQISPVPIHLSIYSPNVVNLTLIDLPGLTKVAVEGQPETIAEDIESMVRTYVDKPNCIILAISPANQDIATSDAIKLAKDVDPTGERTFGVLTKLDLMDKGTNALEVLEGRSYRLQHPWVGIVNRSQADINKNVDMMLARRKEREYFDTSPDYGHLASKMGSEYLAKLLSKHLESVIRTRIPSILSLINKSIEELERELDRMGRPVAVDAGAQLYTILEMCRAFDKIFKEHLDGGRPGGDRIYGVFDNQLPAALKKLPFDRHLSLQSVKKIVSEADGYQPHLIAPEQGYRRLIEGALGYFRGPAEASVDAVHYVLKELVRKSISETEELKRFPSLQVELAAAANSSLEKFREESKKSVIRLVDMESAYLTAEFFRKLPQEIERPVTNSKNQTASPSSATLDQYGDGHFRRIASNVSAYVNMVSDTLRNTIPKACVYCQVRQAKLALLNYFYSQISKREGKQLGQLLDEDPALMDRRLECAKRLELYKKARDEIDAVAWVR | not soluble |
| MDHFIKLLPKLTPHLRKGDCGKMGVIGGSLEYTGAPYFAASSASRLGADLIHIFCDPDAAQVIKGYSPDLIVHPGMTANSIIPKLSRMDAIVIGPGLGRNPNIWPLMQELFEFVRNRDVPFVIDGDGLWFVSEHIEKFPRQMSATVLTPNIVEFSRLCKSALGEEDVLNVRNNSQLQHLAAELSRKMNVTIYLKGEVDLVVTPNGEVSKCSTESSLRRCGGQGDVTAGSLGLFLYWAKKNLGDDWTSAHHEAGIASSWLVRTAGRRAFEKHGRSMNTPLLLDEIPKLVRDVETREMKDTVHTDSSKH | not soluble |
| MQEYTNHSDTTFALRNISFRVPGRTLLHPLSLTFPAGKVTGLIGHNGSGKSTLLKMLGRHQPPSEGEILLDAQPLESWSSKAFARKVAYLPQQLPPAEGMTVRELVAIGRYPWHGALGRFGAADREKVEEAISLVGLKPLAHRLVDSLSGGERQRAWIAMLVAQDSRCLLLDEPTSALDIAHQVDVLALVHRLSQERGLTVIAVLHDINMAARYCDYLVALRSGEMIAQGTPAEIMRGETLEMIYGIPMGILPHPAGAAPVSFVY | not soluble |
| ISTEEAAPDGPPMDVTLQPVTSQSIQVTWKAPKKELQNGVIRGYQIGYRENSPGSNGQYSIVEMKATGDSEVYTLDNLKKFAQYGVVVQAFNRAGTGPSSSEINATTLE | soluble |
| MGSDKIHHHHHHMKETEARAAEALRRLLENIPILHVEGIDAEAVSGDWVPDLIARLVVDGKRHLLICEYKSSGQPRFARSALLELRNYVAQRAPEATPVFIAPYISPVVRKMCEEKGVGYLDLEGNARIAFGGVFIERMVTDKPVVEQRELRSLFRPKSAQVLRAMLRDPGRAWRVTELSEISGVSLGHVSNVRTGLIDREWARASDDGLILSEPDALLDAWRDSYAAPAGERSSFYTPLHGSALEDAARSVLRVEDTRGRAAFASFSAAQWLAPYGRTGTHYFFADEDGLRKLQAALKLAPALKGENVIVTVPKDLGLLADTVEPAPGAICTSPVQTYLDLSIAGERGAEAADHLRQERLSWPR | not soluble |
| MNKFIAAEAAECIGCHACEIACAVAHNQENWPLSHSDFRPRIHVVGKGQAANPVACHHCNNAPCVTACPVNALTFQSDSVQLDEQKCIGCKRCAIACPFGVVEMVDTIAQKCDLCNQRSSGTQACIEVCPTQALRLMDDKGLQQIKVARQRKTAAGKASSDAQPSRSAALLPVNSRKGADKISASERKTHFGEIYCGLDPQQATYESDRCVYCAEKANCNWHCPLHNAIPDYIRLVQEGKIIEAAELCHQTSSLPEICGRVCPQDRLCEGACTLKDHSGAVSIGNLERYITDTALAMGWRPDVSKVVPRSEKVAVIGAGPAGLGCADILARAGVQVDVFDRHPEIGGMLTFGIPPFKLDKTVLSQRREIFTAMGIDFHLNCEIGRDITFSDLTSEYDAVFIGVGTYGMMRADLPHEDAPGVIQALPFLTAHTRQLMGLPESEEYPLTDVEGKRVVVLGGGDTTMDCLRTSIRLNAASVTCAYRRDEVSMPGSRKEVVNAREEGVEFQFNVQPQYIACDEDGRLTAVGLIRTAMGEPGPDGRRRPRPVAGSEFELPADVLIMAFGFQAHAMPWLQGSGIKLDKWGLIQTGDVGYLPTQTHLKKVFAGGDAVHGADLVVTAMAAGRQAARDMLTLFDTKAS | not soluble |
